*1 amine or outer side, *2 acyl side, *3 side chain or, on linkers, in order; H or OH if unused. Side-chain parts run from the residue outwards. [ ]: non-standard residue; d: D form. The star is where a group is joined. PEG12 = NCCOCCOCCOCCOCCOCCOCCOCCOCCOCCOCCOCCOCCC(=O)O; γGlu = O=C(O)[C@H](CCC(=O)[*:2])N[*:1]; 1Nal = N[C@@H](Cc1cccc2ccccc12)C(=O)O; Stearoyl = CCCCCCCCCCCCCCCCCC(=O)*; Palmitoyl = CCCCCCCCCCCCCCCC(=O)*; Nle = CCCC[C@H](N)C(=O)O; Aib = CC(C)(N)C(=O)O

Data on seven molecules can be found in patent US20190233493A1 (Sanofi, published 2019).

This assay addresses T1, RXFP1 receptor (UniProt Q9HBX9 1-757, limits assumed).
T1 sequence (looked up): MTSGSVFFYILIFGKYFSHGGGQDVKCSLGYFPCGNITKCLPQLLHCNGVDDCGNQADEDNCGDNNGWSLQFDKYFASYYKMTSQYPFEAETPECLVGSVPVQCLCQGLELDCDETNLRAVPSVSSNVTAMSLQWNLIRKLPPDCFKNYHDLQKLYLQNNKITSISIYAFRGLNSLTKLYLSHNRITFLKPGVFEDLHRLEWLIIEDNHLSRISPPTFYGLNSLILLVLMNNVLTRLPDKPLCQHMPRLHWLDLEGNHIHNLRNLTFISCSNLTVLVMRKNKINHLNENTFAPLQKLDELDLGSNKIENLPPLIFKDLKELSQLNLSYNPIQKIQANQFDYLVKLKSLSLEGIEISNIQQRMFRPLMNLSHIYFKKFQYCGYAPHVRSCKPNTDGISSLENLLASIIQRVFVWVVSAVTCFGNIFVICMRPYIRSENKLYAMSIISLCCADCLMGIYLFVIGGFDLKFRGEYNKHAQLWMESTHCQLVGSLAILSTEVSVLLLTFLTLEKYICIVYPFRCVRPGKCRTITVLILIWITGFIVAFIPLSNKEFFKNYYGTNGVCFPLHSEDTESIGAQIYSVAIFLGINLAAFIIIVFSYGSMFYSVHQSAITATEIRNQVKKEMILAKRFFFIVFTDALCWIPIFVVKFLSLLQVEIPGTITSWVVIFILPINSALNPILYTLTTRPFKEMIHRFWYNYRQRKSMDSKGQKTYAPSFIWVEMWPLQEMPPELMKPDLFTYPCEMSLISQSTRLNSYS
In words: cell-based or functional assay.

B1: peptide of SEQ ID NO: 27 (peptide)
peptide: Ac-LEGREKVR[Aib]K(Ac)I[Aib][Aib]EG[Nle]STWS[Aib]RKK(Ac)[PEG12]K([γGlu-γGlu-γGlu-Palmitoyl])-NH2
SMILES: CCCCCCCCCCCCCCCC(=O)N[C@@H](CCC(=O)N[C@@H](CCC(=O)N[C@@H](CCC(=O)NCCCC[C@H](NC(=O)CCOCCOCCOCCOCCOCCOCCOCCOCCOCCOCCOCCOCCNC(=O)[C@H](CCCCNC(C)=O)NC(=O)[C@H](CCCCN)NC(=O)[C@H](CCCNC(=N)N)NC(=O)C(C)(C)NC(=O)[C@H](CO)NC(=O)[C@H](Cc1c[nH]c2ccccc12)NC(=O)[C@@H](NC(=O)[C@H](CO)NC(=O)[C@H](CCCC)NC(=O)CNC(=O)[C@H](CCC(=O)O)NC(=O)C(C)(C)NC(=O)C(C)(C)NC(=O)[C@@H](NC(=O)[C@H](CCCCNC(C)=O)NC(=O)C(C)(C)NC(=O)[C@H](CCCNC(=N)N)NC(=O)[C@@H](NC(=O)[C@H](CCCCN)NC(=O)[C@H](CCC(=O)O)NC(=O)[C@H](CCCNC(=N)N)NC(=O)CNC(=O)[C@H](CCC(=O)O)NC(=O)[C@H](CC(C)C)NC(C)=O)C(C)C)[C@@H](C)CC)[C@@H](C)O)C(N)=O)C(=O)O)C(=O)O)C(=O)O
For B1, the “EC50 (nM), OVCAR 5 cells (cAMP)” value turned out to be 0.3 nM and the “EMax, OVCAR 5 cells (cAMP)” value is 86%.

B2: peptide of SEQ ID NO: 29 (peptide)
peptide: Ac-LEGREKVRAK(Ac)I[Aib][Aib]EG[Nle]ST[1Nal]S[Aib]RK[PEG12]K([γGlu-γGlu-γGlu-Palmitoyl])-NH2
SMILES: CCCCCCCCCCCCCCCC(=O)N[C@@H](CCC(=O)N[C@@H](CCC(=O)N[C@@H](CCC(=O)NCCCC[C@H](NC(=O)CCOCCOCCOCCOCCOCCOCCOCCOCCOCCOCCOCCOCCNC(=O)[C@H](CCCCN)NC(=O)[C@H](CCCNC(=N)N)NC(=O)C(C)(C)NC(=O)[C@H](CO)NC(=O)[C@H](Cc1cccc2ccccc12)NC(=O)[C@@H](NC(=O)[C@H](CO)NC(=O)[C@H](CCCC)NC(=O)CNC(=O)[C@H](CCC(=O)O)NC(=O)C(C)(C)NC(=O)C(C)(C)NC(=O)[C@@H](NC(=O)[C@H](CCCCNC(C)=O)NC(=O)[C@H](C)NC(=O)[C@H](CCCNC(=N)N)NC(=O)[C@@H](NC(=O)[C@H](CCCCN)NC(=O)[C@H](CCC(=O)O)NC(=O)[C@H](CCCNC(=N)N)NC(=O)CNC(=O)[C@H](CCC(=O)O)NC(=O)[C@H](CC(C)C)NC(C)=O)C(C)C)[C@@H](C)CC)[C@@H](C)O)C(N)=O)C(=O)O)C(=O)O)C(=O)O
For the molecule B2, the “EC50 (nM), OVCAR 5 cells (cAMP)” value was determined as 2.5 nM and the “EMax, OVCAR 5 cells (cAMP)” value was 78%.

B3: peptide of SEQ ID NO: 25 (peptide)
peptide: Ac-LEGREKVRAK(Ac)I[Aib][Aib]EGMSTWS[Aib]RK[PEG12]K([γGlu-γGlu-γGlu-Palmitoyl])-NH2
SMILES: CCCCCCCCCCCCCCCC(=O)N[C@@H](CCC(=O)N[C@@H](CCC(=O)N[C@@H](CCC(=O)NCCCC[C@H](NC(=O)CCOCCOCCOCCOCCOCCOCCOCCOCCOCCOCCOCCOCCNC(=O)[C@H](CCCCN)NC(=O)[C@H](CCCNC(=N)N)NC(=O)C(C)(C)NC(=O)[C@H](CO)NC(=O)[C@H](Cc1c[nH]c2ccccc12)NC(=O)[C@@H](NC(=O)[C@H](CO)NC(=O)[C@H](CCSC)NC(=O)CNC(=O)[C@H](CCC(=O)O)NC(=O)C(C)(C)NC(=O)C(C)(C)NC(=O)[C@@H](NC(=O)[C@H](CCCCNC(C)=O)NC(=O)[C@H](C)NC(=O)[C@H](CCCNC(=N)N)NC(=O)[C@@H](NC(=O)[C@H](CCCCN)NC(=O)[C@H](CCC(=O)O)NC(=O)[C@H](CCCNC(=N)N)NC(=O)CNC(=O)[C@H](CCC(=O)O)NC(=O)[C@H](CC(C)C)NC(C)=O)C(C)C)[C@@H](C)CC)[C@@H](C)O)C(N)=O)C(=O)O)C(=O)O)C(=O)O
In the case of B3, the “EC50 (nM), OVCAR 5 cells (cAMP)” value was 1.21 nM and the “EMax, OVCAR 5 cells (cAMP)” value was determined as 95%.

B4: peptide of SEQ ID NO: 28 (peptide)
peptide: Ac-LEGREKVR[Aib]QI[Aib][Aib]EG[Nle]STWS[Aib]RKK(Ac)[PEG12]K([γGlu-γGlu-γGlu-Palmitoyl])-NH2
SMILES: CCCCCCCCCCCCCCCC(=O)N[C@@H](CCC(=O)N[C@@H](CCC(=O)N[C@@H](CCC(=O)NCCCC[C@H](NC(=O)CCOCCOCCOCCOCCOCCOCCOCCOCCOCCOCCOCCOCCNC(=O)[C@H](CCCCNC(C)=O)NC(=O)[C@H](CCCCN)NC(=O)[C@H](CCCNC(=N)N)NC(=O)C(C)(C)NC(=O)[C@H](CO)NC(=O)[C@H](Cc1c[nH]c2ccccc12)NC(=O)[C@@H](NC(=O)[C@H](CO)NC(=O)[C@H](CCCC)NC(=O)CNC(=O)[C@H](CCC(=O)O)NC(=O)C(C)(C)NC(=O)C(C)(C)NC(=O)[C@@H](NC(=O)[C@H](CCC(N)=O)NC(=O)C(C)(C)NC(=O)[C@H](CCCNC(=N)N)NC(=O)[C@@H](NC(=O)[C@H](CCCCN)NC(=O)[C@H](CCC(=O)O)NC(=O)[C@H](CCCNC(=N)N)NC(=O)CNC(=O)[C@H](CCC(=O)O)NC(=O)[C@H](CC(C)C)NC(C)=O)C(C)C)[C@@H](C)CC)[C@@H](C)O)C(N)=O)C(=O)O)C(=O)O)C(=O)O
Consider B4, for which the “EC50 (nM), OVCAR 5 cells (cAMP)” value was 4.64 nM and the “EMax, OVCAR 5 cells (cAMP)” value turned out to be 78%.

B5: peptide of SEQ ID NO: 26 (peptide)
peptide: Ac-LEGREKVRAK(Ac)I[Aib][Aib]EG[Nle]STWS[Aib]RKK(Ac)[PEG12]K([γGlu-γGlu-γGlu-Palmitoyl])-NH2
SMILES: CCCCCCCCCCCCCCCC(=O)N[C@@H](CCC(=O)N[C@@H](CCC(=O)N[C@@H](CCC(=O)NCCCC[C@H](NC(=O)CCOCCOCCOCCOCCOCCOCCOCCOCCOCCOCCOCCOCCNC(=O)[C@H](CCCCNC(C)=O)NC(=O)[C@H](CCCCN)NC(=O)[C@H](CCCNC(=N)N)NC(=O)C(C)(C)NC(=O)[C@H](CO)NC(=O)[C@H](Cc1c[nH]c2ccccc12)NC(=O)[C@@H](NC(=O)[C@H](CO)NC(=O)[C@H](CCCC)NC(=O)CNC(=O)[C@H](CCC(=O)O)NC(=O)C(C)(C)NC(=O)C(C)(C)NC(=O)[C@@H](NC(=O)[C@H](CCCCNC(C)=O)NC(=O)[C@H](C)NC(=O)[C@H](CCCNC(=N)N)NC(=O)[C@@H](NC(=O)[C@H](CCCCN)NC(=O)[C@H](CCC(=O)O)NC(=O)[C@H](CCCNC(=N)N)NC(=O)CNC(=O)[C@H](CCC(=O)O)NC(=O)[C@H](CC(C)C)NC(C)=O)C(C)C)[C@@H](C)CC)[C@@H](C)O)C(N)=O)C(=O)O)C(=O)O)C(=O)O
On to B5, for which the “EC50 (nM), OVCAR 5 cells (cAMP)” value is 0.57 nM and the “EMax, OVCAR 5 cells (cAMP)” value came to 85%.

B6: peptide of SEQ ID NO: 3 (peptide)
peptide: Ac-LEGREKVRAQI[Aib][Aib]EG[Nle]STWS[Aib]RKK([γGlu-Stearoyl])-NH2
SMILES: CCCCCCCCCCCCCCCCCC(=O)N[C@@H](CCC(=O)NCCCC[C@H](NC(=O)[C@H](CCCCN)NC(=O)[C@H](CCCNC(=N)N)NC(=O)C(C)(C)NC(=O)[C@H](CO)NC(=O)[C@H](Cc1c[nH]c2ccccc12)NC(=O)[C@@H](NC(=O)[C@H](CO)NC(=O)[C@H](CCCC)NC(=O)CNC(=O)[C@H](CCC(=O)O)NC(=O)C(C)(C)NC(=O)C(C)(C)NC(=O)[C@@H](NC(=O)[C@H](CCC(N)=O)NC(=O)[C@H](C)NC(=O)[C@H](CCCNC(=N)N)NC(=O)[C@@H](NC(=O)[C@H](CCCCN)NC(=O)[C@H](CCC(=O)O)NC(=O)[C@H](CCCNC(=N)N)NC(=O)CNC(=O)[C@H](CCC(=O)O)NC(=O)[C@H](CC(C)C)NC(C)=O)C(C)C)[C@@H](C)CC)[C@@H](C)O)C(N)=O)C(=O)O
As to B6, the “EC50 (nM), OVCAR 5 cells (cAMP)” value turned out to be 28.5 nM and the “EMax, OVCAR 5 cells (cAMP)” value came out at 93%.

B7: peptide of SEQ ID NO: 24 (peptide)
peptide: Ac-LEGREKVRAQI[Aib][Aib]EG[Nle]STWS[Aib]RK[PEG12]K([γGlu-γGlu-γGlu-Palmitoyl])-NH2
SMILES: CCCCCCCCCCCCCCCC(=O)N[C@@H](CCC(=O)N[C@@H](CCC(=O)N[C@@H](CCC(=O)NCCCC[C@H](NC(=O)CCOCCOCCOCCOCCOCCOCCOCCOCCOCCOCCOCCOCCNC(=O)[C@H](CCCCN)NC(=O)[C@H](CCCNC(=N)N)NC(=O)C(C)(C)NC(=O)[C@H](CO)NC(=O)[C@H](Cc1c[nH]c2ccccc12)NC(=O)[C@@H](NC(=O)[C@H](CO)NC(=O)[C@H](CCCC)NC(=O)CNC(=O)[C@H](CCC(=O)O)NC(=O)C(C)(C)NC(=O)C(C)(C)NC(=O)[C@@H](NC(=O)[C@H](CCC(N)=O)NC(=O)[C@H](C)NC(=O)[C@H](CCCNC(=N)N)NC(=O)[C@@H](NC(=O)[C@H](CCCCN)NC(=O)[C@H](CCC(=O)O)NC(=O)[C@H](CCCNC(=N)N)NC(=O)CNC(=O)[C@H](CCC(=O)O)NC(=O)[C@H](CC(C)C)NC(C)=O)C(C)C)[C@@H](C)CC)[C@@H](C)O)C(N)=O)C(=O)O)C(=O)O)C(=O)O
As to B7, the “EC50 (nM), OVCAR 5 cells (cAMP)” value is 3.2 nM and the “EMax, OVCAR 5 cells (cAMP)” value was 74%.
